Columns and labels:
biliverdin reductase [1] = target: T1, biliverdin reductase (Rattus norvegicus, UniProt P46844); assay: Autophosphorylation of biliverdin reductase, in blot method with [γ^32P]-ATP; assay type: biochemical; details: PVDF bound, denatured/renatured
T1 sequence (P46844 3-295): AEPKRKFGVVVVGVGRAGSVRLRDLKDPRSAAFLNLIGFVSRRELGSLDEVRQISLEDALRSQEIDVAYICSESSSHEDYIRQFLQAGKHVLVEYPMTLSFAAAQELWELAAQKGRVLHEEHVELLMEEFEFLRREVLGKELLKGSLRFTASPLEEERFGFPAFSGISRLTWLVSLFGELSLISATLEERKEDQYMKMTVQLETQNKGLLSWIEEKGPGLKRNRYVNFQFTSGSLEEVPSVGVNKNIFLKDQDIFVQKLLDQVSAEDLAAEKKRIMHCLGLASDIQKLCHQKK
Text: The ability of the reductase to phosphorylate itself was examined using the in blot method of Ferrell and Martin (Ferrell et al., Methods Enzymol. 200:430-435 (1991), which is hereby incorporated by reference). Purified wild type or mutant proteins were used.
The ability of the reductase to phosphorylate itself was examined using the in blot method of Ferrell et al., Methods Enzymol. 200:430-435 (1991), which is hereby incorporated by reference. Following electrophoresis on 12.5% SDS-PAGE plus thioglycolate (0.002%), the protein was transferred to PVDF membrane (Millipore). The blot was denatured for I h at room temperature in 7 M guanidine-HCl (pH 8.3) containing 50 mM Tris-base, 50 mM dithiothreitol and 2 mM EDTA and the bound protein was allowed to renature overnight at 4° C. then incubated at room temperature for 4 h in freshly prepared labeling mix containing 10 μCi/ml [γ^32P]-ATP. The membrane first with 30 mM Tris-HCl (pH 7.4) then for 10 min each with 250 ml of the following: with 30 mM Tris-HCl (pH 7.4) twice; with the same buffer containing 0.5% (v/v) NP-40 once; with the Tris buffer twice; with 1 M KOH once; with the Tris buffer, twice . The membrane was blotted, dried, wrapped in plastic wrap, and exposed for autoradiography.

biliverdin reductase [2] = target: T1, biliverdin reductase; assay: Western blot analysis of phosphorylation of purified rat liver BVR; assay type: biochemical; details: individual anti-phosphotyrosine, -serine, -threonine antibodies
Description: 2D-IEF was performed essentially as detailed previously (Huang et al., J. Biol. Chem. 264:7844-7849 (1989), which is hereby incorporated by reference). The first dimension separation of 3.5 μg of the reductase was carried out by isoelectric focusing (Righetti et al., J Chromatogr. 98:271-321 (1974), which is hereby incorporated by reference) using ampholytes with a 4-6.5 pH range. Electrofocusing was carried out for 17 h at 400 volts then for an additional hour at 800 volts. After focusing, the second dimension separation was carried out using 12.5% SDS polyacrylamide gel. […] The secondary antibody was goat anti-rabbit horseradish peroxidase (Zymed) at a 1:1000 dilution. Detection was carried out using the ECL reagent kit (NEN) according to the manufacturer's instructions. Phosphorylation molecular weight markers were used (Zymed). Soybean trypsin inhibitor (pI 4.55), β-lactoglobin A (pI 5.13), bovine carbonic anhydrase (pI 5.85), and human carbonic anhydrase B (pI 6.57) were used as IEF standards. Immunoblotting was performed by the method of Towbin et al, Proc. Nat. Acad. Sci. USA 76:4350-4354 (1979), which is hereby incorporated by reference. Primary and secondary antibody treatments and staining for peroxidase with 4-chloro-1 -naphthol were performed as described previously (Huang et al., J. Biol. Chem. 264:7844-7849 (1989), which is hereby incorporated by reference).

histone III-S = assay: BVR kinase activity, 32P incorporation into exogenous substrate; assay type: biochemical
Description: (§1) Incubation time was 8 min at 30° C.

HO-1 = assay: as above; assay type: biochemical, rat
Description: as §1

HO-2 = assay: as above; assay type: biochemical, rat
Description: as §1

PKC = assay: Effect of BVR and peptides on PKC activity (MBP substrate, kinetic analysis); assay type: biochemical
Description: FIGS. 11A-C are graphs depicting the role of BVR in increasing protein kinase C activity. FIG. 11A depicts the dose-dependence of PKC activity in the presence of BVR or PKC inhibitor peptide (“PKCI”) in an assay system containing 0.5 μg/ml PKC, 50 μM unlabeled ATP, 5 μCi[^32γP]-ATP and 1 mg/ml MBP and carried out as described infra. FIGS. 11B-C are the kinetic analyses of PKC activity carried out with respect to MBP (FIG. 11B) and with respect to ATP (FIG. 11C) in the presence or absence of 50 μM BVR.
FIGS. 12A-C are graphs illustrating the effect of various rBVR fragments on PKC activity. Protein kinase C was incubated at 30° C. with buffer or with the indicated peptides (50 μM) for 15 min prior to addition to a kinase assay using MBP as substrate. FIG. 12A depicts the relative activity for each sample normalizing to that of the PKC and buffer control value. FIGS. 12B-C are the kinetic analyses of PKC with respect to substrate MBP (FIG. 12B) and ATP (FIG. 12C) in the presence or absence of BVR peptide fragments (50 μM). BVR1 peptide corresponds to SEQ. ID. No. 34 and BVR2 peptide corresponds to SEQ. ID. No. 19.
as §1

[3] = tested on: PKC (a mixture containing equal amounts of isozymes α, β and γ); assay: Overlay assay for PKC binding by rat BVR; details: 2 μg rat liver BVR, 500 ng/ml PKC
Description: The physical interaction of BVR with PKC was assessed using an overlay assay based on that described by Wolf and Sahyoun (J. Biol. Chem. 261:13327-13331 (1986), which is hereby incorporated by reference) with known modifications (Chapline et al., J. Biol. Chem. 268:6858-6861 (1993), which is hereby incorporated by reference). Purified rat liver BVR (2 μg) was subjected to SDS-PAGE and transferred to nitrocellulose membrane. The membrane was blocked, washed, and then overlaid with a solution containing 500 ng/ml of PKC (a mixture containing equal amounts of isozymes α, β and γ) (Promega) in TBS containing 10 mg/ml BSA, 20 μg/ml phosphatidylserine, 1 mM EGTA, 1.2 mM CaCl2, 10 μg/ml leupeptin and 10 μg/ml aprotinin. After incubation for 1 h at room temperature, the blot was extensively washed with the PBS containing the same supplements as the overlay solution, but lacking the kinase mixture. The protein on the membrane was fixed by incubation in 0.5% formaldehyde in PBS and then reactive aldehyde groups were blocked by incubation in 2% glycine in TBS for 20 min at room temperature. The membrane was then washed 3 times with TBS and was cut in two, one half was subjected to Western blot analysis using a 1:1000 dilution of anti-PKC for 2 h at room temperature as the primary antibody, while the second half was probed with rabbit anti-rat BVR as detailed above for Western blotting. […]

[4] = Reductase activity of BVR purified from rat liver; assay type: biochemical; details: purified to homogeneity
Description: BVR was purified from rat liver to homogeneity (3,000 nmol bilirubin/min/mg protein) as described before (O'Carra et al., J. Biochem. 125:110P (1971), which is hereby incorporated by reference), with modifications (Huang et al., J. Biol. Chem. 264:7844-7849 (1989), which is hereby incorporated by reference). Activity was determined at pH 8.7 with NADPH in Tris-HCl with […] in potassium phosphate buffer. The substrate concentration was 5 μM. The rate of activity was measured by the increase in 450 nm absorbance at 25° C. The purified reductase, which was judged to be homogenous by SDS-PAGE, stained with Coomasie Brilliant Blue (Sigma), was used for preparation of polyclonal antibody in New Zealand rabbits (O'Carra et al., J. Biochem. 125:110P (1971), which is hereby incorporated by reference). Protein concentration was determined by Bradford's method (Bradford, Anal. Biochem. 72:248-254 (1976), which is hereby incorporated by reference).

MBP = details: ^32P incorporation
Description: Kinase reactions were carried out based on the assay as described by Roskoski (Roskoski, Methods Enzymol. 99:3-6 (1983), which is hereby incorporated by reference) in a 50 μl volume in a reaction buffer consisting of 20 mM Tris HCl (pH 7.4) containing 10 mM MgCl2, 50 mM unlabeled ATP, 5 μCi [γ^32 P]-ATP and 1 mg/ml substrate. Substrates used were prepared as 10 mg/ml stock in 0.2 M Tris-HCl (pH 7.4) and stored at -20° C. The substrates utilized were MBP and histone III-S (Sigma) and E. coli expressed purified preparations of full length rat HO-1 and HO-2 (McCoubrey et al., J. Biol. Chem. 272:12568-12574 (1997), which is hereby incorporated by reference). The substrate/reaction buffer was incubated at 30° C. for 4 min prior to the addition of 5 μl of enzyme source (2 mg/ml BVR, 0.5 μg/ml PKC) or enzyme vehicle (GST-PBS containing 10% glycerol). Samples were mixed by aspiration and were then incubated for 8-15 min at 30° C. An aliquot (40 μl) from the reaction mixture was spotted onto a P81 (Whatman) filter, which was immediately immersed in 75 mM phosphoric acid for ≧5 min. Filters were washed 5× for 5 min each in 75 mM phosphoric acid and then 1× for 5 min with acetone before being air dried and counted by liquid scintillation counting in 10 ml ScintiVerse BD (Fisher). […] Activity was determined as ^32P counts incorporated into the acceptor protein per minute. […]

[5] = in the presence of 50 μM BVR or peptide

B1: BVR: rat biliverdin reductase, SEQ. ID. No. 4, purified from rat liver (Example 3) (protein, listed as Rattus norvegicus)
chain: MDAEPKRKFGVVVVGVGRAGSVRLRDLKDPRSAAFLNLIGFVSRRELGSLDEVRQISLEDALRSQEIDVAYICSESSSHEDYIRQFLQAGKHVLVEYPMTLSFAAAQELWELAAQKGRVLHEEHVELLMEEFEFLRREVLGKELLKGSLRFTASPLEEERFGFPAFSGISRLTWLVSLFGELSLISATLEERKEDQYMKMTVQLETQNKGLLSWIEEKGPGLKRNRYVNFQFTSGSLEEVPSVGVNKNIFLKDQDIFVQKLLDQVSAEDLAAEKKRIMHCLGLASDIQKLCHQKK
- autophosphorylation (biliverdin reductase [1]): able to phosphorylate itself
- phosphoamino acids present (biliverdin reductase [2]): esterified on tyrosine (panel b), serine (panel c), and threonine (panel d) residues
- phosphate transferred by BVR to histone III-S (histone III-S): ~1,000 cpm/min
- HO-1 as substrate for BVR phosphotransferase activity (HO-1): not substrates
- HO-2 as substrate for BVR phosphotransferase activity (HO-2): not substrates
- effect on Km of the PKC reaction with respect to ATP (PKC; BVR 50 μM): negligible
- dose dependence of PKC activity (^32P into MBP) (PKC; PKC preincubated 15 min at 30° C., MBP substrate): increased in a dose-dependent manner
- Vmax of the PKC reaction with respect to ATP (PKC; [5]): 2.9 pmol/min
- Vmax of the PKC reaction with respect to MBP (PKC; [5]): 4.9 pmol/min
- substrate Km of the PKC reaction (PKC; upon addition of BVR (50 μM), MBP): 0.16 mg/mL
- PKC binding (overlay, anti-PKC Western) [3]: PKC-interactive protein
- specific activity of purified rat liver BVR [4]: 3,000 nmol bilirubin/min/mg protein
- phosphate transferred by BVR to MBP (MBP): ~4,000 cpm/min

— US20050287132A1, “Biliverdin reductase fragments and variants, and methods of using biliverdin reductase and such fragments and variants” (University of Rochester, priority 1999, published 2005)
